Laboratory results: US11905559B2, “Materials and methods for controlling gene expression” (priority 2016, dated 2024)
Positions count from the first letter of the chain named.

What was measured:
guanine-riboswitch = details: previous in-line measurements; cited from earlier work
[1] = Constant-force / force-jump assay of the full-length riboswitch RNA; format: physicochemical
Text: Moreover, as the successive traces were not reproducible, the anti-terminator conformation could not be assigned to the transitions. […] The function of the random structures can be presumed to destabilize the terminator hairpin and turn “ON” the gene expression. The un-bound trajectories are referred to as the “non-terminator” conformations to distinguish from the traditionally defined anti-terminator conformation. […] To assess the mode of allosteric modulation (tilt-equilibrium or induced-fit), the mechanical unfolding assay was performed in the presence of guanine salts ranging from 1 nM to 1 μM. […] Had this been the case, a gradual shift would have been observed in the equilibrium toward the terminator conformation according to the tilt-equilibrium model. […] Thus, at 16 pN, the terminator fluctuates between the open and the closed states, observed as Y*↔Y and Z*↔Z in FIG. 23A. […] The Keq˜0.1
[formula] implied that the hairpin preferred the open state (90%) at 16 pN (the Keq˜1 at 15.6 pN). The expression platform dynamics and the unfolding scheme are shown in FIGS. 27A-B. That the bi-stabilities are due to the terminator was further confirmed by subjecting the FL-mutant to similar cycles (FIG. 23B). […] The findings thus underscore that only the guanine induces a terminator conformation to the expression platform. Transition Y→Z* (ΔX=14±2.5 nm) indicated a complete unfolding of the aptamer (FIGS. 27A-B).
In a constant-force (CF) experiment, the RNA is held at a preset force through feedback control. The preset force typically fluctuated around the mean with a standard deviation ±0.15 pN. In this mode, data is recorded from 4-40 kHz to capture the fast intermediates. The plots are shown as extension vs. time (as in FIG. 6A). In force-jump (FJ) assay, the force is suddenly jumped from one force to another, and then held constant thereafter, as shown in FIGS. 23A-B.

[2] = Force-ramp mechanical assay of the full-length xpt leader mRNA; format: physicochemical
Text: A dual-beam high-resolution optical tweezers was built that can detect short-lived fluctuations at sub-milliseconds (<0.25 msec) time scale at a single base pair level, with high precision and accuracy. This instrument was used to investigate the conformational dynamics of the full-length (FL) guanine-responsive riboswitch (guanine-riboswitch) and its 69-nt aptamer domain present in the 5′-UTR of an xpt-pbuX operon in B. subtilis. It has been shown that the xpt leader mRNA selectively downregulates the gene expression by transcription termination in the presence of guanine (FIG. 17B). The FL xpt mRNA was subjected to mechanical assays in order to identify the terminator and an anti-terminator conformation. […] The unfolding trajectory (red curve) indicated the melting of the 35-nt terminator hairpin at 16.1±0.5 pN (n=1200 traces) with a transition distance, ΔXt˜15±3 nm. A second transition at 17.9±0.9 pN with a distance, ΔXa˜25-30 nm indicated the unfolding of the 69-nt aptamer. […] The terminator mutant (FL-mutant, FIGS. 17D-E) abolished the 16.0 pN transition, thus supporting the structural assignment.
The forces on the bead were recorded at an acquisition rate of 44 kHz. Data was collected from the stereo phone jacks on the ADC boards of the Tweezers instrument and sent to the host computer audio input for analysis by SignalScope program (Faber Acoustical, LLC). As shown in the plot, power spectral density is fitted with the Lorentzian fit to yield the corner frequency (fc) that was used to calculate the trap stiffness. This setup was used to perform three different mechanical reactions: force-ramp (FR), constant-force (CF) and force-jump (FJ) under a controlled force. In the force-ramp (FR) experiment, the trap was moved at 200 nm/s, which corresponded to a loading rate 7-8 pN/s. […] The force-ramp data is plotted as force vs. extension curves (FEC).

Nc1nc(N)c2[nH]cnc2n1 [DAP, 2,6-diaminopurine]
Kd (guanine-riboswitch): ~10 µM

B1: FL xpt mRNA: full-length wild-type guanine riboswitch sequence comprising the aptamer domain and expression platform (SEQ ID NO: 12) (nucleic acid)
chain: AAUAUAAUAGGAACACUCAUAUAAUCGCGUGGAUAUGGCACGCAAGUUUCUACCGGGCACCGUAAAUGUCCGACUAUGGGUGAGCAAUGGAACCGCACGUGUACGGUUUUUUGUGAUAUCAGCAUUGCUUGCUCUUUAUUUGAGCGGGCAAUGCUUUUUUUAUUCUCAUAACGGAGGUAGACAGGAUG
modifications: aptamer_domain (14)..(82); expression_platform (83)..(188)
Keq of terminator hairpin ([1]; 15.6 pN, +G): ~1 | Keq of terminator hairpin ([1]; 16 pN, +G): ~0.1 | Terminator hairpin in the open state ([1]; 16 pN, +G): 90% | ΔX of transition Y→Z* (complete unfolding of the aptamer) ([1]; 16 pN, +G): 14±2.5 nm | Change in extension of terminator open/closed bi-stabilities (Y*↔Y, Z*↔Z) ([1]; 16 pN, +G (FIG. 23A: 200 nM guanine)): 15±1.7 nm | Force of second transition (unfolding of the 69-nt aptamer) ([2]; 1 μM guanine): 17.9±0.9 pN | Transition distance ΔXa (aptamer) ([2]; 1 μM guanine): 25-30 nm | Transition distance ΔXt (terminator) ([2]; 1 μM guanine): ~15±3 nm | Melting force of the 35-nt terminator hairpin ([2]; 1 μM guanine, n=1200 traces): 16.1±0.5 pN

B2: FL-mutant: full-length mutant guanine riboswitch sequence comprising the aptamer domain and expression platform (SEQ ID NO: 13) (nucleic acid)
chain: B1 chain with G148C, C149G, G153C, C154G
modifications: aptamer_domain (14)..(82); expression_platform (83)..(188)
Terminator hopping (in words) ([1]; 75 traces, 200 nM guanine): without exhibiting a terminator hopping | 16.0 pN terminator transition (in words) ([2]; force-extension curve): abolished
